Literature values as cited in PMC3153048.

Experiments:
[1] = target: ExsE (Pseudomonas aeruginosa) (UniProt Q9I322)
[2] = target: ExsD (Pseudomonas aeruginosa) (UniProt Q9I321)
Chain of UniProt Q9I321 (Q9I321 whole entry): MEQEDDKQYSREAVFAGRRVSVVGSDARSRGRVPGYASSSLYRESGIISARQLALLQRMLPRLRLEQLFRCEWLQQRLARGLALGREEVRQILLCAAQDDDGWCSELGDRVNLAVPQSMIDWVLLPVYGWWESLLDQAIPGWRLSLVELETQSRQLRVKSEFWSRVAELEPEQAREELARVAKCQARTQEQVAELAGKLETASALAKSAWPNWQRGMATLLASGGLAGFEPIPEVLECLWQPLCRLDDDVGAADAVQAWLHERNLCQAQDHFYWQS

Chain of UniProt Q9I322 (Q9I322 whole entry): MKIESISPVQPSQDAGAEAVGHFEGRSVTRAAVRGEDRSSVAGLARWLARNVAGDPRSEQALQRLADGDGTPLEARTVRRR

In the case of ExsC (from UniProt P26995), the Kd [1] is given as 1 nM and the Kd [2] is given as 18 nM.
